From US10272135B2, “Apolipoprotein O and fragments thereof for inducing apoptosis in a cancerous cell” (INSERM (INSTITUT NATIONAL DE LA SANTÉ ET DE LA RECHERCHE …, priority 2014, dated 2019)

Experiments:
cyclophilin-D and/or ANT = experiment: Blue Native Page and GST pull-down with heart mitochondria protein extracts; assay type: binding, mouse; details: BN-PAGE and GST-ApoO pull-down (FIGS. 5A and B)
Excerpt: (A) One-dimensional BN-PAGE gel analysis of mitochondrial protein complexes from mouse heart. (1): Coomassie blue staining of the 4-13% polyacrylamide one-dimensional gradient blue native gel. (2): Ponceau S staining of the transferred PVDF membrane. ApoO, ANT and CypD were detected using enhanced chemiluminescence of the transferred PVDF membranes with ApoO, ANT or CypD antibodies respectively. ApoO, ANT and CypD were detected in the same complex (black rectangle).
(B) Western blot analysis of ApoO-GST pull-down. Upper panel: Ponceau S staining of the transferred membrane used to control loading and transfer. […]
After ethical committee approval, all patients in this study gave written consent for sample collection and molecular analysis prior to inclusion. […] All ApoO sequences within the expression vectors were verified by DNA double strand sequencing using ABI PRISM®BigDye™ Terminator version 3.1 Ready reaction cycle sequencing kit (Life Technologies SAS, Villebon sur Yvette) and loaded on an ABI 3130XL DNA sequencing instrument (Life Technologies SAS, Villebon sur Yvette). […]

MPTP = experiment: Mitochondrial calcein-cobalt assay of MPTP opening; assay type: cell-based; details: cultured cardiac myoblasts

B1: ApoO: 198-amino acid apolipoprotein, SEQ ID NO: 1; tested by overexpression from expression vectors or transgene (protein, listed as Homo sapiens)
chain: MFKVIQRSVGPASLSLLTFKVYAAPKKDSPPKNSVKVDELSLYSVPEGQSKYVEEARSQLEESISQLRHYCEPYTTWCQETYSQTKPKMQSLVQWGLDSYDYLQNAPPGFFPRLGVIGFAGLIGLLLARGSKIKKLVYPPGFMGLAASLYYPQQAIVFAQVSGERLYDWGLRGYIVIEDLWKENFQKPGNVKNSPGTK
B1 was tested, and the “interaction with cyclophilin-D and/or ANT” value (cyclophilin-D and/or ANT) was “interaction” and the “kinetics of MPTP opening” value (MPTP) was “alters the kinetics of MPTP opening”.
